Experimental data from US20030190311A1.

Columns and labels:
human FcRn (human) = assay: BIAcore SPR, equilibrium/Scatchard, soluble FcRn over immobilized IgG1, pH 6.0, 25 C
murine FcRn (murine) = assay: as above

- Kd (human FcRn (human)): 2530 nM
- Kd (murine FcRn (murine)): 269 nM
Substance: wild type human IgG1 MEDI-493 (SYNAGIS) (antibody)
